This is an account of results in article PMC3265435, “More than just a metabolic regulator - elucidation and validation of new targets of PdhR in Escherichia coli”.

Data set [1] deals with T1, PdhR (his-tagged) (Escherichia coli, UniProt P0ACL9 1-254). Nature of the data set: EMSA; 0.1 pmol DNA, 54 pmol PdhR; EMSA as in ref 7; 0.1 pmol of each DNA fragment with 54 pmol PdhR; buffer, salt, pH and temperature not given. As to conditions: protein: recombinant, tags: His, chain copies: 2, label: 5'DY682 (strand 1), 5'DY782 (strand 2). (In EMSA bound probe runs differently from free probe, usually more slowly.)
T1 sequence (P0ACL9 whole entry, the tested form may be a part): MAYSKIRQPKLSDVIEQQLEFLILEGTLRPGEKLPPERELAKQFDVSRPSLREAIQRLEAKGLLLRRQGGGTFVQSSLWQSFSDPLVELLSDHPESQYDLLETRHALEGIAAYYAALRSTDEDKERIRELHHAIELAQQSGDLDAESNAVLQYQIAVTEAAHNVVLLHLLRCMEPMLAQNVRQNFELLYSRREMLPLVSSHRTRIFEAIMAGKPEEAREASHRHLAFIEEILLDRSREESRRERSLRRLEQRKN

Data set [2] has as its target T1, PdhR (his-tagged). Put plainly: EMSA; 0.1 pmol DNA, 54 pmol PdhR; same binding activity as pdhR site; EMSA as in ref 7; 0.1 pmol of each DNA fragment with 54 pmol PdhR; buffer, salt, pH and temperature not given. As to conditions: protein: recombinant; tags: His; chain copies: 2; label: 5'DY682 (strand 1); 5'DY782 (strand 2); blunt.

B1: PdhRop (dsDNA)
DNA 1: GCCGAAGTCAATTGGTCTTACCAATTTCATGTCTGTG
DNA 2: CACAGACATGAAATTGGAAGACCAATTGACTTCGGC
B1: in the data set with PdhR (his-tagged) [1] (printed strands not exact complements: S23 lacks one T opposite an A of S22 (37/36 nt; possible misprint)), the binding result was “binds”.

B2: GlcDop (dsDNA)
DNA 1: CTATCTCTTTAGCTACCGGTCAGACCATTTTTTTTCCAGCTCT
DNA 2: AGAGCTGGAAAAAAAATGGTCTGACCGGTAGCTAAAGAGATAG
In the case of B2, the binding result in the data set with PdhR (his-tagged) [2] was “binds”.

B3: MetBop (dsDNA)
DNA 1: AACGGCTATTTGGGATTTGCTCAATCTATACGCAAAGAAGTTT
DNA 2: AAACTTCTTTGCGTATAGATTGAGCAAATCCCAAATAGCCGTT
As to B3, the binding result with PdhR (his-tagged) [1] (blunt) is recorded as “no binding”.
